Source: patent US20160177307

Tested on: T1, VEGF-121 (Homo sapiens), P15692-9
T1 sequence: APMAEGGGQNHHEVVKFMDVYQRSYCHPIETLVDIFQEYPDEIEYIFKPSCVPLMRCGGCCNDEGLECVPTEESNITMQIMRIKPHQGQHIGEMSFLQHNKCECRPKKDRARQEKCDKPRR
Experiment: filter

AGCCGTTAAGTGCTTGTAGGATTTAAATGGA [4867-31_97]
Kd (P=Nap-dU, C3 spacer at 8): 7.3 nM

AGCCGTTAAGTGCTTGTAGGATTTAAATGGA [4867-31_101]
Kd (P=Nap-dU): 5.89 nM

AGCCGTTCAAGTGCTTGTAGATTTAAATGGA [4867-31_99]
Kd (P=Nap-dU, C3 spacer at 20): 0.22 nM

AGCCGTTCAAGTGCTTGTAGGATTTAAATGGA [4867-31_66]
Kd (P=Nap-dU, 2'-OMe G2): 0.17 nM

AGCCGTTCAAGTGCTTGTAGGATTTAAATGGA [4867-31_67]
Kd (P=Nap-dU, 2'-OMe C3 (inferred, superscript lost)): 0.33 nM

AGCCGTTCAAGTGCTTGTAGGATTTAAATGGA [4867-31_68]
Kd (P=Nap-dU, 2'-OMe C4 (inferred, superscript lost)): 7.55 nM

AGCCGTTCAAGTGCTTGTAGGATTTAAATGGA [4867-31_72]
Kd (P=Nap-dU, 2'-OMe C8 (inferred, superscript lost)): 0.21 nM

AGCCGTTCAAGTGCTTGTAGGATTTAAATGGA [4867-31_73]
Kd (P=Nap-dU, 2'-OMe A9): 5.99 nM

AGCCGTTCAAGTGCTTGTAGGATTTAAATGGA [4867-31_74]
Kd (P=Nap-dU, 2'-OMe A10): 3.14 nM

AGCCGTTCAAGTGCTTGTAGGATTTAAATGGA [4867-31_75]
Kd (P=Nap-dU, 2'-OMe G11): 0.15 nM

AGCCGTTCAAGTGCTTGTAGGATTTAAATGGA [4867-31_76]
Kd (2'-OMe-U at 12 in place of NapdU, other P are NapdU, 2'-OMe-U for NapdU): 22.9 nM

AGCCGTTCAAGTGCTTGTAGGATTTAAATGGA [4867-31_77]
Kd (P=Nap-dU, 2'-OMe G13): 6.64 nM

AGCCGTTCAAGTGCTTGTAGGATTTAAATGGA [4867-31_78]
Kd (P=Nap-dU, 2'-OMe C14): 0.24 nM

AGCCGTTCAAGTGCTTGTAGGATTTAAATGGA [4867-31_81]
Kd (P=Nap-dU, 2'-OMe G17): 0.44 nM

AGCCGTTCAAGTGCTTGTAGGATTTAAATGGA [4867-31_83]
Kd (P=Nap-dU, 2'-OMe A19): 0.1 nM

AGCCGTTCAAGTGCTTGTAGGATTTAAATGGA [4867-31_84]
Kd (P=Nap-dU, 2'-OMe G20): 0.21 nM

AGCCGTTCAAGTGCTTGTAGGATTTAAATGGA [4867-31_85]
Kd (P=Nap-dU, 2'-OMe G21): 25.8 nM

AGCCGTTCAAGTGCTTGTAGGATTTAAATGGA [4867-31_86]
Kd (P=Nap-dU, 2'-OMe A22): 6.21 nM

AGCCGTTCAAGTGCTTGTAGGATTTAAATGGA [4867-31_90]
Kd (P=Nap-dU, 2'-OMe A26): 2.85 nM

AGCCGTTCAAGTGCTTGTAGGATTTAAATGGA [4867-31_91]
Kd (P=Nap-dU, 2'-OMe A27): 0.35 nM

AGCCGTTCAAGTGCTTGTAGGATTTAAATGGA [4867-31_92]
Kd (P=Nap-dU, 2'-OMe A28): 8.87 nM

AGCCGTTCAAGTGCTTGTAGGATTTAAATGGA [4867-31_94]
Kd (P=Nap-dU, 2'-OMe G30): 0.21 nM

AGCCGTTCAAGTGCTTGTAGGATTTAAATGGA [4867-31_95]
Kd (P=Nap-dU, 2'-OMe G31): 0.19 nM

AGCCGTTCAAGTGCTTGTAGGATTTAAATGGA [4867-31_96]
Kd (P=Nap-dU, 2'-OMe A32): 0.13 nM

AGCCGTTCAAGTGCTTTAGGATTTAAATGGA [4867-31_98]
Kd (C3 spacer at 17, all P are NapdU, C3 at G17): 0.1 nM

CCCCCATCAGCCGTTCAAGTGCTTGTAGGATTTAAATGGAATTGGAGGA [4867-15_27]
Kd (P=Nap-dU, C3 spacer at 4): 0.4 nM

CCCTCATCAGCCGTTCAAGTGCTTGTAGGATTTAAATGGAATTGGAGGA [4867-15_28]
Kd (P=Nap-dU, C3 spacer at 5): 0.34 nM

CCCTCATCAGCCGTTCAAGTGCTTGTAGGATTTAAATGGAATTGGAGGA [4867-15_29]
Kd (P=Nap-dU, C3 spacer at 6): 0.2 nM

CCCTCCACAGCCGTTCAAGTGCTTGTAGGATTTAAATGGAATTGGAGGA [4867-15_31]
Kd (P=Nap-dU, C3 spacer at 8): 0.095 nM

CCCTCCATAGCCGTTCAAGTGCTTGTAGGATTTAAATGGAATTGGAGGA [4867-15_32]
Kd (P=Nap-dU, C3 spacer at 9): 0.079 nM

CCCTCCATCACCGTTCAAGTGCTTGTAGGATTTAAATGGAATTGGAGGA [4867-15_34]
Kd (P=Nap-dU, C3 spacer at 11): 0.14 nM

CCCTCCATCAGCCGTTAAGTGCTTGTAGGATTTAAATGGAATTGGAGGA [4867-15_40]
Kd (P=Nap-dU, C3 spacer at 17): 0.17 nM

CCCTCCATCAGCCGTTCAAGTCTTGTAGGATTTAAATGGAATTGGAGGA [4867-15_45]
Kd (P=Nap-dU, C3 spacer at 22): 3.5 nM

CCCTCCATCAGCCGTTCAAGTGCTTGAGGATTTAAATGGAATTGGAGGA [4867-15_50]
Kd (P=Nap-dU, C3 spacer at 27): 3.5 nM

CCCTCCATCAGCCGTTCAAGTGCTTGTAGATTTAAATGGAATTGGAGGA [4867-15_52]
Kd (P=Nap-dU, C3 spacer at 29): 0.2 nM

CCCTCCATCAGCCGTTCAAGTGCTTGTAGATTTAAATGGAATTGGAGGA [4867-15_53]
Kd (P=Nap-dU, C3 spacer at 30): 23 nM

CCCTCCATCAGCCGTTCAAGTGCTTGTAGGATTTAAATGAATTGGAGGA [4867-15_62]
Kd (P=Nap-dU, C3 spacer at 39): 53 nM

CCCTCCATCAGCCGTTCAAGTGCTTGTAGGATTTAAATGAATTGGAGGA [4867-15_63]
Kd (P=Nap-dU, C3 spacer at 40): 15 nM

CCCTCCATCAGCCGTTCAAGTGCTTGTAGGATTTAAATGGAATGGAGGA [4867-15_66]
Kd (P=Nap-dU, C3 spacer at 43): 0.11 nM

CCCTCCATCAGCCGTTCAAGTGCTTGTAGGATTTAAATGGAATGGAGGA [4867-15_67]
Kd (P=Nap-dU, C3 spacer at 44): 0.15 nM

CCCTCCATCAGCCGTTCAAGTGCTTGTAGGATTTAAATGGAATTGAGGA [4867-15_68]
Kd (P=Nap-dU, C3 spacer at 45): 0.32 nM

CCCTCCATCAGCCGTTCAAGTGCTTGTAGGATTTAAATGGAATTGAGGA [4867-15_69]
Kd (P=Nap-dU, C3 spacer at 46): 0.77 nM

CCCTCCATCAGCCGTTCAAGTGCTTGTAGGATTTAAATGGAATTGGAGA [4867-15_71]
Kd (P=Nap-dU, C3 spacer at 48): 0.24 nM

CCCTCCATCAGCCGTTCAAGTGCTTGTAGGATTTAAATGGAATTGGAGA [4867-15_72]
Kd (P=Nap-dU, C3 spacer at 49): 0.19 nM

CCCTCCATCAGCCGTTCAAGTGCTTGTAGGATTTAAATGGAATTGGAGG [4867-15_73]
Kd (P=Nap-dU, C3 spacer at 50): 0.17 nM

CCCTCCATCAGCCGTTCAAGTGCTTGTAGGATTTAAATGGAATTGGAGGA [4867-31_2 (4867-15_2, 50-mer)]
Kd (all P are NapdU, rest DNA, 50-mer parent): 0.15 nM

CCCTCCATCAGCCGTTCAAGTGCTTGTAGGATTTAAATGGAATTGGGGA [4867-15_70]
Kd (P=Nap-dU, C3 spacer at 47): 0.68 nM

CCCTCCATCAGCCGTTCAAGTGCTTGTAGGATTTAAATGGATTGGAGGA [4867-15_64]
Kd (P=Nap-dU, C3 spacer at 41): 0.22 nM

CCCTCCATCAGCCGTTCAAGTGCTTGTAGGATTTAAATGGATTGGAGGA [4867-15_65]
Kd (P=Nap-dU, C3 spacer at 42): 0.13 nM

CCCTCCATCAGCCGTTCAAGTGCTTGTGGATTTAAATGGAATTGGAGGA [4867-15_51]
Kd (P=Nap-dU, C3 spacer at 28): 1.6 nM

CCCTCCATCAGCCGTTCAAGTGCTTTAGGATTTAAATGGAATTGGAGGA [4867-15-49]
Kd (C3 spacer at 26 as stated in text numbering is nearby G (single V in SEQ:614), all P are NapdU, C3 spacer at G26 tolerated): 0.079 nM

CCCTCCATCAGCCGTTCAATGCTTGTAGGATTTAAATGGAATTGGAGGA [4867-15_43]
Kd (P=Nap-dU, C3 spacer at 20): 9.2 nM

CCCTCCATCAGCCGTTCAGTGCTTGTAGGATTTAAATGGAATTGGAGGA [4867-15_41]
Kd (P=Nap-dU, C3 spacer at 18): 13 nM

CCCTCCATCAGCCGTTCAGTGCTTGTAGGATTTAAATGGAATTGGAGGA [4867-15_42]
Kd (P=Nap-dU, C3 spacer at 19): 31 nM

CCCTCCATCAGCCTTCAAGTGCTTGTAGGATTTAAATGGAATTGGAGGA [4867-15_37]
Kd (P=Nap-dU, C3 spacer at 14): 30 nM

CCCTCCATCAGCGTTCAAGTGCTTGTAGGATTTAAATGGAATTGGAGGA [4867-15_35]
Kd (P=Nap-dU, C3 spacer at 12): 3.4 nM

CCCTCCATCGCCGTTCAAGTGCTTGTAGGATTTAAATGGAATTGGAGGA [4867-15_33]
Kd (P=Nap-dU, C3 spacer at 10): 0.12 nM

CCCTCCTCAGCCGTTCAAGTGCTTGTAGGATTTAAATGGAATTGGAGGA [4867-15_30]
Kd (P=Nap-dU, C3 spacer at 7): 0.11 nM

CCGTTAAAGTGCTTGTAGGATTTAAATGGA [4867-31_145]
Kd (P=Nap-dU): 3.08 nM

CCGTTCAAGTGCTTATAGGATTTAAATGGA [4867-31_148]
Kd (P=Nap-dU): 0.53 nM

CCGTTCAAGTGCTTCTAGGATTTAAATGGA [4867-31_149]
Kd (P=Nap-dU): 0.27 nM

CCGTTCAAGTGCTTGTAAGATTTAAATGGA [4867-31_151]
Kd (P=Nap-dU): 0.16 nM

CCGTTCAAGTGCTTGTACGATTTAAATGGA [4867-31_152]
Kd (P=Nap-dU): 0.32 nM

CCGTTCAAGTGCTTGTAGGATTTAAATGG [4867-31_143]
Kd (NapdU at 4,5,10,13,14,16,21,22,23,27, rest DNA, SB18T, 37 C, Table 13 gives 0.14 nM): 0.17 nM

CCGTTCAAGTGCTTGTAGGATTTAAATGG [4867-31_154]
Kd (NapdU at P, 2'-OMe 4): 5.9 nM

CCGTTCAAGTGCTTGTAGGATTTAAATGG [4867-31_155]
Kd (NapdU at P, 2'-OMe 5): 3.3 nM

CCGTTCAAGTGCTTGTAGGATTTAAATGG [4867-31_156]
Kd (NapdU at P, 2'-OMe 10): 0.68 nM

CCGTTCAAGTGCTTGTAGGATTTAAATGG [4867-31_157]
Kd (NapdU at P, 2'-OMe 13): 1.5 nM

CCGTTCAAGTGCTTGTAGGATTTAAATGG [4867-31_158]
Kd (NapdU at P, 2'-OMe 14): 1.7 nM

CCGTTCAAGTGCTTGTAGGATTTAAATGG [4867-31_159]
Kd (NapdU at P, 2'-OMe 16): 0.56 nM

CCGTTCAAGTGCTTGTAGGATTTAAATGG [4867-31_160]
Kd (NapdU at P, 2'-OMe 21): 1.5 nM

CCGTTCAAGTGCTTGTAGGATTTAAATGG [4867-31_161]
Kd (2'-OMe-NapU at 22, other P are NapdU, target taken as VEGF-121): 0.064 nM

CCGTTCAAGTGCTTGTAGGATTTAAATGG [4867-31_162]
Kd (2'-OMe-NapU at 23, other P are NapdU, target taken as VEGF-121): 8.9 nM

CCGTTCAAGTGCTTGTAGGATTTAAATGG [4867-31_163]
Kd (NapdU at P, 2'-OMe 27): 0.26 nM

CCGTTCAAGTGCTTGTAGGATTTAAATGG [4867-31_191]
Kd (NapdU at P, 2'-OMe 9,15,17,18,28,29 as printed): 0.1 nM

CCGTTCAAGTGCTTGTAGGATTTAAATGG [4867-31_409]
Kd (as 4867-31_192, PS 3' of 1, 3' inverted dT): 0.011 nM
